B1: ADP-ribosylation factor 6 (Mus musculus), P62331 (parent)
chain: MGKVLSKIFGNKEMRILMLGLDAAGKTTILYKLKLGQSVTTIPTVGFNVETVTYKNVKFNVWDVGGQDKIRPLWRHYYTGTQGLIFVVDCADRDRIDEARQELHRIINDREMRDAIILIFANKQDLPDAMKPHEIQEKLGLTRIRDRNWYVQPSCATSGDGLYEGLTWLTSNYKS
partner: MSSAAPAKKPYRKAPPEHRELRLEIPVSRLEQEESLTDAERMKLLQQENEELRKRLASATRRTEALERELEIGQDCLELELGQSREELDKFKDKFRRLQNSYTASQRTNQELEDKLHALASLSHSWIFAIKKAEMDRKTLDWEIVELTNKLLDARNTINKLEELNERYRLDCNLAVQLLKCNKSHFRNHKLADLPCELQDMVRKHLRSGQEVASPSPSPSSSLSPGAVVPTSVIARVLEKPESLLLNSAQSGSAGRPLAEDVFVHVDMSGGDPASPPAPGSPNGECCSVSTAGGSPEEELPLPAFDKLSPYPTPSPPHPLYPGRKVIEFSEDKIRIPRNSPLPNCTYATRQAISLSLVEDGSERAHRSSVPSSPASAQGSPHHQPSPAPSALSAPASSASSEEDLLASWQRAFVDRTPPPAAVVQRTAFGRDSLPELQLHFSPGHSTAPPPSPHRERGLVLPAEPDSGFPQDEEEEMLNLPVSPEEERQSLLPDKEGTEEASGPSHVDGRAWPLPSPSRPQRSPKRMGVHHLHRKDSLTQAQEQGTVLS

Variants of: B1
Conditions: with tjap1_mouse Tjap1, Q9DCD5
T44N was tested, and the “effect of a mutation on the interaction” value was “disrupting interaction”.

Source: IntAct's records for PubMed 22841714
